Laboratory results: patent US20120329711A1, “GLP-1 RECEPTOR AGONIST COMPOUNDS WITH A MODIFIED N-TERMINUS” (Nordisk A/S, priority 2009, published 2012)
Where two headings read alike, the source gives them in different places.

What was measured:
[1] = molecular target: T1, human GLP-1 receptor (Homo sapiens, UniProt P43220)
[2] = molecular target: T1, human GLP-1 receptor; test: SPA displacement of [^125I]-GLP-1(7-36)NH2 from BHK membranes with the human GLP-1 receptor, 2.0% HSA (high albumin)
[3] = molecular target: T1, human GLP-1 receptor; test: SPA displacement of [^125I]-GLP-1(7-36)NH2 from BHK membranes with the human GLP-1 receptor, 0.005% HSA (low albumin)
[4] = molecular target: Human Serum Albumin (human) (UniProt P02768); test: shift of the GLP-1 receptor IC50 (SPA displacement of ^125I-GLP-1) between 2.0% and 0.005% HSA, which the filing takes as an indication of albumin binding
[5] = molecular target: T1, human GLP-1 receptor; remark: listed apart in the source

EC50 of cAMP formation (AlphaScreen cAMP assay) [1]	IC50 [2]	IC50 [3]	ratio [(IC50/nM) high HSA]/[(IC50/nM) low HSA] [4]	EC50 of cAMP formation (AlphaScreen cAMP assay) [5]	Substance
< 2.1 nM	< 900 nM	< 40 nM	> 10	–	N^9-{2-[2-(1H-Imidazol-4-yl)-propylcarbamoyl]-2-methyl-propionyl}-N^ε36-(2-{2-[2-(17-carboxyheptadecanoylamino)ethoxy]ethoxy}acetyl) [Glu^30,Lys^36]GLP-1(9-37)Glu^38-peptide amide
< 2.1 nM	< 900 nM	< 40 nM	> 10	–	N^9-{2-[2-(1H-Imidazol-4-yl)-ethylcarbamoyl]-2-methyl-propionyl}-N^ε36-(2-{2-[2-(17-carboxyheptadecanoylamino)ethoxy]ethoxy}acetyl) (Glu^30,Lys^36)GLP-1(9-37) Glu^38-peptide amide
< 2.1 nM	< 900 nM	< 40 nM	> 10	–	N^9-{2-[2-(1H-Imidazol-4-yl)-ethylcarbamoyl]-2-methyl-propionyl}-N^ε26-{2-[2-(2-{2-[2-(2-{(S)-4-[4-(4-tert-Butyl-phenyl)-butyrylamino]-4-carboxy-butyrylamino}-ethoxy)-ethoxy]-acetylamino}-ethoxy)-ethoxy]-acetyl}, N^ε37-{2-[2-(2-{2-[2-(2-{(S)-4-[4-(4-tert-Butyl-phenyl)-butyrylamino]-4-carboxy-butyrylamino}-ethoxy)-ethoxy]-acetylamino}-ethoxy)-ethoxy]-acetyl}[Arg^34, Lys^37]GLP-1(9-37)-peptide
–	–	> 40 nM	> 300	> 8 nM	N^9-(5-oxo-5-phenylpentanoyl), N^ε26-[2-[2-[2-[[2-[2-[2-[[(4S)-4-carboxy-4-(17-carboxyheptadecanoylamino)butanoyl]amino]ethoxy]ethoxy]acetyl]amino]ethoxy]ethoxy]acetyl]-[Arg^34]-GLP-1-(9-37)-peptide
< 2.1 nM	< 900 nM	< 40 nM	> 10	–	N^9-{2-[2-(1H-Imidazol-4-yl)methylcarbamoyl]-2-methyl-propionyl}-N^ε36-(2-{2-[2-(17-carboxyheptadecanoylamino)ethoxy}ethoxy]acetyl)[Glu^30,Lys^36]GLP-1(9-37) Glu^38-peptide amide
< 2.1 nM	< 900 nM	< 40 nM	> 10	–	N^9-{2-[2-(1H-Imidazol-4-yl)-ethylcarbamoyl]-2-methyl-propionyl}N^ε26-{2-[2-(2-{2-[2-(2-{(S)-4-Carboxy-4-[10-(4-carboxy-phenoxy)-decanoylamino]-butyrylamino}-ethoxy)-ethoxy]-acetylamino}-ethoxy)-ethoxy]-acetyl}, N^ε37-{2-[2-(2-{2-[2-(2-{(S)-4-Carboxy-4-[10-(4-carboxy-phenoxy)-decanoylamino]-butyrylamino}-ethoxy)-ethoxy]-acetylamino}-ethoxy)-ethoxy]-acetyl}[Arg^34,Lys^37]GLP-1(9-37)Glu^38-peptide
< 2.1 nM	< 900 nM	< 40 nM	> 10	–	N^9-{2-[2-(1H-Imidazol-4-yl)-ethylcarbamoyl]-2-methyl-propionyl}-N^ε26-{2-[2-(2-{2-[2-(2-{(S)-4-Carboxy-4-[10-(4-carboxy-phenoxy)-decanoylamino]-butyrylamino}-ethoxy)-ethoxy]-acetylamino}-ethoxy)-ethoxy]-acetyl}, N^ε37-{2-[2-(2-{2-[2-(2-{(S)-4-Carboxy-4-[10-(4-carboxy-phenoxy)-decanoylamino]-butyrylamino}-ethoxy)-ethoxy]-acetylamino}-ethoxy)-ethoxy]-acetyl}[Arg^34,Lys^37]GLP-1(9-37)-peptide
< 2.1 nM	< 900 nM	< 40 nM	> 10	–	N^9-[-{2-[2-(1H-Imidazol-4-yl)-ethylcarbamoyl]-2-methyl-propionyl}-N^ε18-[2-(2-[2-(2-[2-(2-((S)-3-[1-(19-Carboxy-nonadecanoyl)-piperidine-4-carboxyamino]-3-carboxypropionylamino)ethoxy)ethoxy]acetylamino)ethoxy]ethoxy)acetyl][Lys^18,Glu^22, Gln^34]GLP-1(9-37)-peptide
< 2.1 nM	< 900 nM	< 40 nM	> 10	–	N^9-{2-[2-(1H-Imidazol-4-yl)-ethylcarbamoyl]-2-methyl-propionyl}-N^ε26-[2-(2-{2-[2-(2-{2-[(S)-4-Carboxy-4-(17-carboxyheptadecanoylamino)butyrylamino]ethoxy}ethoxy)acetylamino]ethoxy}ethoxy)acetyl][His^31,Gln^34]GLP-1(9-37)-peptide
< 2.1 nM	< 900 nM	< 40 nM	> 10	–	N^9-[2,2-dimethyl-3-oxo-3-(pyridin-2-ylmethylamino)propanoyl], N^ε26-[2-[2-[2-[[2-[2-[2-[[(4S)-4-carboxy-4-[10-(4-carboxyphenoxy)decanoylamino]butanoyl]amino]ethoxy]ethoxy]acetyl]amino]ethoxy]ethoxy]acetyl], N^ε37-[2-[2-[2-[[2-[2-[2-[[(4S)-4-carboxy-4-[10-(4-carboxyphenoxy)decanoylamino]butanoyl]amino]ethoxy]ethoxy]acetyl]amino]ethoxy]ethoxy]acetyl]-[Arg^34,Lys^3]-GLP-1-(9-37)-peptide
< 2.1 nM	< 900 nM	< 40 nM	> 10	–	N^9-{2-[2-(1H-Imidazol-4-yl)-ethylcarbamoyl]-2-methyl-propionyl}N^ε26-[2-(2-{2-[2-(2-{2-[(S)-4-Carboxy-4-(17-carboxyheptadecanoylamino)butyrylamino]ethoxy}ethoxy)acetylamino]ethoxy}ethoxy)acetyl][Arg^34]GLP-1(9-37)-peptide
< 2.1 nM	–	–	–	–	N^3-{2-[2-(1H-Imidazol-4-yl)-methylcarbamoyl]-2-methyl-propionyl}-[2-(2-{2-[2-(2-{2-[(S)-4-Carboxy-4-(17-carboxyheptadecanoylamino)-butyrylamino]ethoxy}ethoxy)-acetylamino]ethoxy}-ethoxy)acetyl][Arg^17,Arg^20,Arg^33,Lys^38]GLP-1A(3-37)-peptide
